Assay results as given in article PMC3293397 (Biochemistry, 2012).

Biological target: the molecule itself
Assay: crystal structure

B1: S. elongatus KaiC E318A mutant protein (enzyme, Synechococcus elongatus PCC 7942, UniProt Q79PF4 1-519, looked up)
chain: MTSAEMTSPNNNSEHQAIAKMRTMIEGFDDISHGGLPIGRSTLVSGTSGTGKTLFSIQFLYNGIIEFDEPGVFVTFEETPQDIIKNARSFGWDLAKLVDEGKLFILDASPDPEGQEVVGGFDLSALIERINYAIQKYRARRVSIDSVTSVFQQYDASSVVRRELFRLVARLKQIGATTVMTTERIEEYGPIARYGVEEFVSDNVVILRNVLEGERRRRTLEILKLRGTSHMKGEYPFTITDHGINIFPLGAMRLTQRSSNVRVSSGVVRLDEMCGGGFFKDSIILATGATGTGKTLLVSRFVENACANKERAILFAYAESRAQLLRNAYSWGMDFEEMERQNLLKIVCAYPESAGLEDHLQIIKSEINDFKPARIAIDSLSALARGVSNNAFRQFVIGVTGYAKQEEITGLFTNTSDQFMGAHSITDSHISTITDTIILLQYVEIRGEMSRAINVFKMRGSWHDKAIREFMISDKGPDIKDSFRNFERIISGSPTRITVDEKSELSRIVRGVQEKGPES
modifications: phosphothreonine at T432 in five of the six subunits; no S431 phosphorylated
B1: binds.
